Assays:
[1] = biological target: T1, recombinant human cANGPTL4 (C-terminus fibrinogen-like signaling peptide of angiopoietin-like 4) (human, UniProt Q9BY76 166-406); experiment: SPR (Reichert 2SPR), purified recombinant human cANGPTL4
T1 construct: also called C-terminus of ANGPTL4
T1 sequence: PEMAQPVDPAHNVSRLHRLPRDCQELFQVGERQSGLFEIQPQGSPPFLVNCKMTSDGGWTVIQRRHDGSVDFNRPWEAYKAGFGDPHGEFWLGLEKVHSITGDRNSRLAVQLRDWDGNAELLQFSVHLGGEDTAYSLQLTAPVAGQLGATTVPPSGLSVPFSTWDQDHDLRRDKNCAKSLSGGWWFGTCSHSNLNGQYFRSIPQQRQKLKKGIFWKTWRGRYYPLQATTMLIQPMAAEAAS
Protocol: The kinetic binding parameters and affinity of the purified antibodies was determined by surface plasmon resonance (SPR) using Reichert 2SPR machine (Reichert Technologies) and purified recombinant human cANGPTL4 (Table 2).

[2] = biological target: T1, recombinant human cANGPTL4 (C-terminus …); experiment: direct ELISA of hybridoma supernatants

B1: Ab-B, monoclonal rat-anti-human cANGPTL4 antibody (antibody, V domains shown)
VH: EVQLVESGGGLVQPGRSLKLSCAASGFTFSNYGMAWVRQTPTKGLEWVASISTGGSDTYYRDSVKGRFTISRDNAKNTQYLQMDSLRSEDTATYYCARQGFTEDTDYWGQGVMVTVSS
VL: DIQMTQSPSFLSASVGDRVTINCKASQNINKYLNWYQQKLGEAPKRLIYNTNNLQTGIPSRFSGSGSGTDYTLTISSLQPEDFATYFCLQHNSFPGTFGGGTKLELK
Binder B1 has a Kd [1] of 0.132 nM, a koff [1] of 3.69e-05 s⁻¹ and a kon [1] of 269000 M⁻¹ s⁻¹.

B2: Ab-D, monoclonal rat-anti-human cANGPTL4 antibody (antibody, V domains shown)
VH: EVQLVESGGGLVQPGRSLKLSCAASGFTFSNYGMAWVRQTPTKGLEWVASISTGGGNTYYRDSVKGRFTISRDNAKNTQYLQMDSLRSEDTATYYCARDSTVDYFDYWGQGVMVTVSS
VL: DIQMTQSPSFLSASVGDRVTINCKASQKINKYLNWYQQKLGEAPKRLIYNTNNLQTGIPSRFSGSGSGTDFTLTISSLQPEDFATYCCLQHNSFPGTFGGGTKLELK
notes: also called Antibody Ab-D
For B2, the Kd [1] was 0.48 nM, the koff [1] was 3.89e-05 s⁻¹ and the kon [1] was 81100 M⁻¹ s⁻¹.

B3: Ab-E, monoclonal rat-anti-human cANGPTL4 antibody (antibody, V domains shown)
VH: EVQLVESGGGLVQPGRSMKLSCAASGFTFSSFAMAWVRQAPTKGLEWVASISYDGGNTYYRDSVKGRFTISRDNAKSSLYLQMDSLRSEDTSTYYCASADLIWWYFDFWGPGTMVTVSS
VL: DIQMTQSPASLSASLEEIVTITCQASQDIGNWLAWYQQKPGKSPQLLIYGSTSLADGVPSRFSGSRSGTQYSLKISRLQVEDIGIYYCQQASSAPPTFGAGTKLELK
B3 showed a Kd [1] of 3.74 nM, a koff [1] of 8.07e-05 s⁻¹ and a kon [1] of 21500 M⁻¹ s⁻¹.

B4: Ab-A, monoclonal rat-anti-human cANGPTL4 antibody (antibody, V domains shown)
VH: QVQLKESGPGLMQPSETLSLTCTVSGFSLTTNGVGWVRQPLGKGLVWMGTIWAGGSTNYNSAVQSRLSISRDTSKSQVFLKMNSLQPEDTGTYYCARQPFYYYDGIHYTRGYFDYWGQGVMVTVSS
VL: DVQMTQSPYNLAASPGESVSINCKASKSISKYLAWYQQKLGKANKLLIYDGSTLQSGIPSRFSGSGSGTDFTLTIRSLEPEDFGLYYCQQHNEYPATFGGGTKLELK
B4: binds [2].

B5: Ab-C, monoclonal rat-anti-human cANGPTL4 antibody (antibody, V domains shown)
VH: EVQLVDSGGGLVQPGRSLKLSCAASGFTFSNYGMAWVRQIPTKGLEWVASISSGGGNTYYRDSVKGRFTISRDNAKNTQYLQMDSLRSEDTATYYCARDPGITGFDYWGQGVMVTVSS
VL: DIQMTQSPSFLSASVGDRVTINCKASQNINKYLNWYQQKLGEAPKRLIYNTNTLQTGIPSRFSGSGSGTDYTLTISSLQPEDFATYFCLQHNSFPGTFGPGTTLELK
With B5 the Kd [1] was 0.199 nM, the koff [1] was 1.35e-05 s⁻¹ and the kon [1] was 67800 M⁻¹ s⁻¹.
